Values of other authors, collected in PMC5934386.
Like-named read-outs stand apart in the source and are kept apart here.

How the values were obtained:
Ubiquitin (Homo sapiens) [1] = target: Ubiquitin (Homo sapiens) (UniProt P0CG47)
Ubiquitin (Homo sapiens) [2] = target: Ubiquitin (Homo sapiens) (UniProt P0CG47); assay: NMR

E2-25K UBA, sequence (P61086 157-200): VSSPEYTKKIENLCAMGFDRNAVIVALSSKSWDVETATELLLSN
yeast E2-25K, sequence (P21734 whole entry): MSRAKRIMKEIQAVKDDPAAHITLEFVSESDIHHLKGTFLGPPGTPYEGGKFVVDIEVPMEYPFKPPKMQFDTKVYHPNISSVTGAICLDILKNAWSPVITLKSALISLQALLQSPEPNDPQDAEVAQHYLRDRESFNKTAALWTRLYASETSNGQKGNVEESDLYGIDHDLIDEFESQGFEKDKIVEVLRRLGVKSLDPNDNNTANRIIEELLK

Substance	Kd (Ubiquitin (Homo sapiens) [1]) [µM]	Kd (Ubiquitin (Homo sapiens) [2]) [µM]
E2-25K UBA (from UniProt P61086)	1200	
yeast E2-25K (from UniProt P21734)		228
